According to PMC10023680 (2023):

B1: RhoG (residues 1-184) (domain or fragment)
chain: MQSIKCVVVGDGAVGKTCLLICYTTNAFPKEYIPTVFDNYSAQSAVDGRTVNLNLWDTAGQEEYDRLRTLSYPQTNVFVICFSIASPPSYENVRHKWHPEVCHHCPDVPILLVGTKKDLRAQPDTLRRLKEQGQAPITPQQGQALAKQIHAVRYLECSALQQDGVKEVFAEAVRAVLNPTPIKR
B2: GST-tagged ELMO1-RBD (residues 1-113), wild-type (domain or fragment)
chain: MPPPADIVKVAIEWPGAYPKLMEIDQKKPLSAIIKEVCDGWSLANHEYFALQHADSSNFYITEKNRNEIKNGTILRLTTSPAQNAQQLHERIQSSSMDAKLEALKDLASLSRD

Columns and labels:
Assay in all cases: SPR
[1] = molecular target: GST-tagged ELMO1-RBD (residues 1-113) K20E (human, UniProt Q92556 1-113, K20E)
[2] = molecular target: GST-tagged ELMO1-RBD (residues 1-113) Y18A (human, UniProt Q92556 1-113, Y18A)
[3] = molecular target: B1

Kd [1] | Kd [2] | Kd [3] | Binder
18.2 µM | 19.3 µM | – | B1
– | – | 8.4 µM | B2
